# Test results as given in publication PMC5510646 (The Biochemical journal, 2017).
# Positions count from the first letter of the chain named. Names and notes keep the numbering of the source.
# B1: Grem2 K66A/K69A (natural protein)
# chain: RKNRPAGAIPSPYKDGSSNNSERWHHQIKEVLASSQEALVVTERAYLASDWCKTQPLRQTVSEEGCRSRTILNRFCYGQCNSFYIPRHVKKEEDSFQSCAFCKPQRVTSVIVELECPGLDPPFRIKKIQKVKHCRCMSVNLSDSDKQ
# B2: Grem2 K111A/K112A (natural protein)
# chain: B1 chain with A45K, A48K, K90A, K91A
# B3: Recombinant mature BMP2 (ligand, UniProt P12643 283-396, looked up)
# chain: QAKHKQRKRLKSSCKRHPLYVDFSDVGWNDWIVAPPGYHAFYCHGECPFPLADHLNSTNHAIVQTLVNSVNSKIPKACCVPTELSAISMLYLDENEKVVLKNYQDMVVEGCGCR
# B4: Grem2 K151A/K153A (natural protein)
# chain: B1 chain with A45K, A48K, K130A, K132A
# B5: Grem2 K147A/K148A (natural protein)
# chain: B1 chain with A45K, A48K, K126A, K127A
# Tests used:
# SEC = biological target: the molecule itself; assay: SEC
# [1] = biological target: T1, Grem2 K147A/K148A/K151A/K153A (UniProt O88273 22-168, K147A | K148A | K151A | K153A); assay: SPR
# T1 sequence: B1 chain with A45K, A48K, K126A, K127A, K130A, K132A
# [2] = biological target: T2, Grem2 K66A/K69A/K147A/K148A (UniProt O88273 22-168, K66A | K69A | K147A | K148A); assay: SPR
# T2 sequence: B1 chain with K126A, K127A
# Grem2 K151A/K153A = biological target: B4; assay: SPR
# Grem2 K147A/K148A = biological target: B5; assay: SPR
# [3] = biological target: T3, Grem2 K111A/K112A/K151A/K153A (UniProt O88273 22-168, K111A | K112A | K151A | K153A); assay: SPR
# T3 sequence: B1 chain with A45K, A48K, K90A, K91A, K130A, K132A
# Grem2 K66A/K69A = biological target: B1; assay: SPR
# Grem2 K111A/K112A = biological target: B2; assay: SPR
# Gremlin-2 wild type = biological target: T4, Gremlin-2 wild type (UniProt O88273 22-168); assay: SPR
# T4 sequence: B1 chain with A45K, A48K
binder,measurement,setting,value
B1,stoichiometry N,SEC,2
B2,stoichiometry N,SEC,2
B3,Kd,[1],4.4 nM
same,Kd,[2],5.66 nM
same,Kd,Grem2 K151A/K153A,1.3 nM
same,Kd,Grem2 K147A/K148A,1.98 nM
same,Kd,[3],2.11 nM
same,Kd,Grem2 K66A/K69A,2.4 nM
same,Kd,Grem2 K111A/K112A,1.77 nM
same,Kd,Gremlin-2 wild type,1.42 nM
B4,stoichiometry N,SEC,2
B5,stoichiometry N,SEC,2
